According to patent US20030157712A1, “Methods for determining cell responses through EphB receptors” (priority 1997, published 2003):

Legend:
HRMEC [1] = test: Cell adhesion assay (HRMEC); assay type: cell-based, human; details: 90 min after plating
Procedure: (§1) Cell adhesion assay. Six well plates (Falcon) were coated with thin layers of Matrigel or with 0.5 μg cm^2 fibronectin (29). Growth medium was replaced 48 h before harvest with binding medium, either DMEM (HRMEC) or ∝-MEM (P19) containing 1% bovine albumin. Cells were recovered by trypsinization (HRMEC) or vigorous tituration (P19) and washed three times with binding medium and plated at 1×10^5 cells per well. Ligands were added coincident with plating at concentrations indicated above. After 90 min, unattached cells were dislodged by applying 4 brisk slaps of the plate on a horizontal surface, and the attached cell layer was carefully washed once with PBS containing calcium and magnesium to collect the remaining unattached cells. Attached cells were collected after incubation in Dispase (Collaborative Biomedical Products). Separate fractions were recovered by centrifugation, washed once and trypan blue excluding cells counted visually using a hemocytomer. The ratio of attached to total number of cells recovered were calculated for each of three wells. Data are expressed as mean+/−SEM and are representative of three independent experiments.

[2] = test system: LMW-PTP recruitment to EphB1 and EphB2 complexes; test: LMW-PTP recruitment to EphB1 and EphB2 complexes (co-immunoprecipitation, immunoblot); assay type: cell-based, human
Procedure: Ligand stimulation and immunoprecipitation of endogenous EphB receptors. Primary HRMEC were used at passages 3-6, as described (12). P19 cells were cultured as recommended (ATCC, Rockville, Md.). Ninety min prior to ligand stimulation, cells (2×10^5cells/60 mm dish) were plated on Matrigel-(Collaborative Biomedical Products, Becton Dickinson, Bedford, Mass., as recommended) or fibronectin-coated (29) dishes. Ligand (ephrin-B1/Fc) or control (ORF/Fc) (30) multimers were generated by preincubation with anti-Fc at a fixed ratio of 0.1× the indicated concentrations of Fc fusion proteins [50 ng ml^−1 anti-Fc for 500 ng ml^−1 Fc fusion protein]. If not otherwise indicated, Fc fusion proteins (ephrinB1/Fc or ORF/Fc) were used at 500 ng ml^−1 in the absence or presence of preclustering anti-Fc at 50 ng ml^−1. Cells were incubated with agonists at 37° C. for 10 min, or as described in the figure legends. […] Precipitated proteins were analyzed by immunoblot (15).
It was reasoned that alternative signaling responses mediated through EphB receptors might reflect differential association of additional receptor signaling complex components. […] Accordingly, EphB1 immunoprecipitates were analyzed for LMW-PTP immunoreactivity (11,17).

EphB2 = molecular target: T1, EphB2 (Homo sapiens, UniProt P29323); test: EphB2 immunoprecipitation and phosphotyrosine immunoblot; assay type: cell-based; details: HRMEC; Fc fusion proteins 500 ng ml^−1
T1 construct: EphB2 receptor immunoprecipitates (from HRMEC); endogenous in cells; host or cells: HRMEC
T1 sequence (P29323 19-1055): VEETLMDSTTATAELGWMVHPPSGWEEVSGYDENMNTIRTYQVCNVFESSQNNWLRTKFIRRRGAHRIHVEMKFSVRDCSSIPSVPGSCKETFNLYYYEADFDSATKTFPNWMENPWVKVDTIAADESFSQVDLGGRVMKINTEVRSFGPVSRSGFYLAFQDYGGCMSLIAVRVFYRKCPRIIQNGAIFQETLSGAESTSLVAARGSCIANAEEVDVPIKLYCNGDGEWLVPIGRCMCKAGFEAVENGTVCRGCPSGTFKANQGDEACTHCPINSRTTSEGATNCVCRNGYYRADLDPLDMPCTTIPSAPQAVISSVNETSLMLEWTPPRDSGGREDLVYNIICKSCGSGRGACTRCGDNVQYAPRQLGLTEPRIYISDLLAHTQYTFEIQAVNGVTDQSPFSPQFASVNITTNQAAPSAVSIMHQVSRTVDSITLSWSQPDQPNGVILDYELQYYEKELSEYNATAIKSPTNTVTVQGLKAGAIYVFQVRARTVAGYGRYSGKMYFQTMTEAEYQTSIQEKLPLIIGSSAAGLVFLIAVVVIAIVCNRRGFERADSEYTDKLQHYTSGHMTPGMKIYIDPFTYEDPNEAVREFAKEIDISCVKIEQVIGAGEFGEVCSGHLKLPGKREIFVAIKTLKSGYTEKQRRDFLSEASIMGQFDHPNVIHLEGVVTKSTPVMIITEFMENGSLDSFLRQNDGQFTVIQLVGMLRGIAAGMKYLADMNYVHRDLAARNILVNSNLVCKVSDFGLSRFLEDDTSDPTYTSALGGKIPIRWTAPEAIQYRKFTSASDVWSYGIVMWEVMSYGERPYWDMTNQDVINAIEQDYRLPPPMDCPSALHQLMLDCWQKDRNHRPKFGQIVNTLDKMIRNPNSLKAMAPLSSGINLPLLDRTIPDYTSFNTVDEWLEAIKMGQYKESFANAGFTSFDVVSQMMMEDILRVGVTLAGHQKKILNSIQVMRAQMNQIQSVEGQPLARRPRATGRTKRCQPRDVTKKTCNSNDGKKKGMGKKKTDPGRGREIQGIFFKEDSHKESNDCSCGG
Procedure: Ligand stimulation and immunoprecipitation of endogenous EphB receptors. Primary HRMEC were used at passages 3-6, as described (12). P19 cells were cultured as recommended (ATCC, Rockville, Md.). Ninety min prior to ligand stimulation, cells (2×10^5cells/60 mm dish) were plated on Matrigel-(Collaborative Biomedical Products, Becton Dickinson, Bedford, Mass., as recommended) or fibronectin-coated (29) dishes. Ligand (ephrin-B1/Fc) or control (ORF/Fc) (30) multimers were generated by preincubation with anti-Fc at a fixed ratio of 0.1× the indicated concentrations of Fc fusion proteins [50 ng ml^−1 anti-Fc for 500 ng ml^−1 Fc fusion protein]. If not otherwise indicated, Fc fusion proteins (ephrinB1/Fc or ORF/Fc) were used at 500 ng ml^−1 in the absence or presence of preclustering anti-Fc at 50 ng ml^−1. Cells were incubated with agonists at 37° C. for 10 min, or as described in the figure legends. Immunoprecipitations were conducted on either cell lysates (P19) or on Triticum vulgaris lectin affinity purified fractions of HRMEC (15) (needed to reduce the background from Matrigel). Precipitated proteins were analyzed by immunoblot (15).
EphB1 and EphB2 immunoprecipitates from HRMEC stimulated with dimeric or multimeric (+anti-Fc) ephrin-B1/Fc were analyzed for receptor activation (anti-PY), and coprecipitation of heteromeric receptors (anti-EphB1, or anti-EphB2). […]

P19 cells = test: Cell adhesion assay (P19); assay type: cell-based, murine; details: fibronectin coated dishes, 90 min
Procedure: as §1

HRMEC [3] = test: Endothelial assembly into capillary-like structures (HRMEC); assay type: cell-based, human; details: HRMEC on Matrigel, two dimensional in vitro assay, 8 h
Procedure: Endothelial assembly into capillary-like structures. Twelve well plates (Falcon) were coated with thin layers of Matrigel. HRMEC were plated at a density of 4×10^4 cells/well in DME containing 1% fetal bovine serum. Indicated agonists, control peptides, alone, or in combination with the EphB1/Fc antagonist (1000 ng ml^−1) (FIG. 5) were added at the time of plating. Cells were incubated at 37° C. for 8 h and photographed using phase microscopy (magnification 100×) (Diaphot-TMD, Nikon).

B1: ephrin-B1/Fc dimers: disulfide-linked immunoglobulin Fc fusion form of ephrin-B1 (protein)
chain: LAKNLEPVSWSSLNPKFLSGKGLVIYPKIGDKLDIICPRAEAGRPYEYYKLYLVRPEQAAACSTVLDPNVLVTCNRPEQEIRFTIKFQEFSPNYMGLEFKKHHDYYITSTSNGSLEGLENREGGVCRTRTMKIIMKVGQDPNAVTPEQLTTSRPSKEADNTVKMATQAPGSRGSLGDSDGKHETVNQEEKSGPGASGGSSGDPDGFFNSK
modifications: left off: a dimerising Fc or GST
HRMEC attachment to Matrigel- and fibronectin-coated surfaces (HRMEC [1]): did not
recruitment of 18 kDa tyrosine phosphoprotein (LMW-PTP) to EphB1 and EphB2 immunoprecipitates [2]: not
tyrosine phosphorylation of EphB2 (EphB2): stimulated
P19 attachment to fibronectin (P19 cells): modest effect to decrease
endothelial capillary-like assembly (HRMEC [3]): did not
